We go through one substance from patent US20260069687A1.

The target of this assay is Claudin 18 splice variant 2 (CLDN18.2) (human). In words: cell-based or functional assay.

Sequence of IMAB362 (VH): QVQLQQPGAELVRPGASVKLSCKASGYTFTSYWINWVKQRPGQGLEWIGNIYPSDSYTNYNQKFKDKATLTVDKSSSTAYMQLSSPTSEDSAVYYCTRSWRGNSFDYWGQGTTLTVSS
Sequence of IMAB362 (VL): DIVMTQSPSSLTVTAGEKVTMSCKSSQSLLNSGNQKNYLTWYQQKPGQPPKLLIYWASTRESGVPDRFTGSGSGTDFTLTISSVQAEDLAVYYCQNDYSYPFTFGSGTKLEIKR

IMAB362 (antibody) displayed a CDC lysis of CLDN18.2-transfected CHO-K1 cells, 0.5 µg/ml IMAB362 in pooled sera from healthy controls, 80 min of 64.5%; a CDC lysis of CLDN18.2-transfected CHO-K1 cells, 0.5 µg/ml fresh IMAB362 in patient pre-infusion serum (20% v/v), 80 min of 71%; a CDC lysis of CLDN18.2-transfected CHO-K1 cells, 0.5 µg/ml fresh IMAB362 in pre-infusion serum of patient 0204, 80 min of 93.9%; an EC50 of CDC on CLDN18.2 positive CHO-K1 target cells of 0.5 µg/mL. For the same substance, the EC80-100 of total cytotoxicity (ADCC plus serum components) on NUGC-4 cells, healthy donor PBMCs, E:T 40:1, 25% serum came out at 200 µg/mL; the maximal specific lysis of NUGC-4 target cells, ADCC with patient PBMCs (E:T 20:1, 24 h), at ~30 µg/ml IMAB362 lay in the range of 27 to 77%; the specific killing of NUGC-4 cells by IMAB362 present in patient serum 28-32 days after administration (healthy donor PBMCs, E:T 40:1) was more than 48%.
